Measurements taken from the supplement of paper PMC10065799, “High-throughput profiling of sequence recognition by tyrosine kinases and SH2 domains using bacterial peptide display” (eLife, 2023).

Experiments:
[1] = biological target: Grb2 SH2 (UniProt P62993); assay: SH2 binding enrichment of the phosphorylated peptide, bacterial display (enrichment ratio); higher = better substrate or ligand; peptides without Tyr show the background
[2] = biological target: SHP2-C SH2; assay: as above
[3] = biological target: c-Src SH2; assay: as above
[4] = tested on: c-Src; assay: phosphorylation enrichment, bacterial display (enrichment ratio); higher = better substrate or ligand; peptides without Tyr show the background
[5] = tested on: AncSZ; assay: as above
[6] = biological target: EPHB1 (UniProt P54762); assay: as above
[7] = biological target: FGFR1 (UniProt P11362); assay: as above
[8] = biological target: Fyn (UniProt P06241); assay: as above
[9] = biological target: MERTK (UniProt Q12866); assay: as above
[10] = biological target: Fes (UniProt P07332); assay: as above
[11] = biological target: Hck (UniProt P08631); assay: as above
[12] = biological target: FGFR3 (UniProt P22607); assay: as above
[13] = biological target: EPHB2 (UniProt P29323); assay: as above
[14] = tested on: Fer (mouse); assay: as above
[15] = biological target: Jak2 (UniProt O60674); assay: as above
[16] = tested on: c-Abl (mouse); assay: as above
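Throughout, for SH2 binding enrichment of the phosphorylated peptide, bacterial display: peptide library displayed on the E. coli surface as eCPX fusions, selected cells deep-sequenced, score is each peptide's frequency after selection divided by its frequency in the input.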
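Throughout, for phosphorylation enrichment, bacterial display: 11-residue human phosphosite peptides and single-mutation variants displayed on the E. coli surface, counted by deep sequencing, each peptide's frequency after selection divided by its frequency in the unselected input library; frequency after pTyr selection over input frequency; kinase dosed for 20-30% of maximal phosphorylation in three min.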

Chain of Fes (P07332 whole entry, looked up): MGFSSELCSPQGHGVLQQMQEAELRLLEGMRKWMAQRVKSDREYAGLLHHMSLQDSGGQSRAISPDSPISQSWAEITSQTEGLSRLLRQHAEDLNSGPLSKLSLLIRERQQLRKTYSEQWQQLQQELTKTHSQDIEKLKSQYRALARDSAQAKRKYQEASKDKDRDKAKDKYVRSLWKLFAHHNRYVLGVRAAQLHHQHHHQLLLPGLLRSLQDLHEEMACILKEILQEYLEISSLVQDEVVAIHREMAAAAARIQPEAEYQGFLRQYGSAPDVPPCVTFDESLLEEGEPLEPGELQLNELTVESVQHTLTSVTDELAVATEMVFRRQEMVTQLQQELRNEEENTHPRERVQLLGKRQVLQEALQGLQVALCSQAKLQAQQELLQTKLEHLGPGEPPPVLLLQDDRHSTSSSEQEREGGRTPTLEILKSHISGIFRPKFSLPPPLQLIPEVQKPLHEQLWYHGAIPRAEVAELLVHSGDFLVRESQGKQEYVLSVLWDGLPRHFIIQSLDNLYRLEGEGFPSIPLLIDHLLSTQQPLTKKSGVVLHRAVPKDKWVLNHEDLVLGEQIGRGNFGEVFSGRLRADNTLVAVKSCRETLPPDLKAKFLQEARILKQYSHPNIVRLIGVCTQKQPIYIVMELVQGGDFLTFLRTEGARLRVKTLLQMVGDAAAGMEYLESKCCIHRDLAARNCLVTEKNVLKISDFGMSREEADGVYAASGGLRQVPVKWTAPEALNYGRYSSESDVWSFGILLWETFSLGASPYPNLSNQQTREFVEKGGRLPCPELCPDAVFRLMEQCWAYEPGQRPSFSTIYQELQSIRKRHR
Chain of MERTK (Q12866 whole entry, looked up): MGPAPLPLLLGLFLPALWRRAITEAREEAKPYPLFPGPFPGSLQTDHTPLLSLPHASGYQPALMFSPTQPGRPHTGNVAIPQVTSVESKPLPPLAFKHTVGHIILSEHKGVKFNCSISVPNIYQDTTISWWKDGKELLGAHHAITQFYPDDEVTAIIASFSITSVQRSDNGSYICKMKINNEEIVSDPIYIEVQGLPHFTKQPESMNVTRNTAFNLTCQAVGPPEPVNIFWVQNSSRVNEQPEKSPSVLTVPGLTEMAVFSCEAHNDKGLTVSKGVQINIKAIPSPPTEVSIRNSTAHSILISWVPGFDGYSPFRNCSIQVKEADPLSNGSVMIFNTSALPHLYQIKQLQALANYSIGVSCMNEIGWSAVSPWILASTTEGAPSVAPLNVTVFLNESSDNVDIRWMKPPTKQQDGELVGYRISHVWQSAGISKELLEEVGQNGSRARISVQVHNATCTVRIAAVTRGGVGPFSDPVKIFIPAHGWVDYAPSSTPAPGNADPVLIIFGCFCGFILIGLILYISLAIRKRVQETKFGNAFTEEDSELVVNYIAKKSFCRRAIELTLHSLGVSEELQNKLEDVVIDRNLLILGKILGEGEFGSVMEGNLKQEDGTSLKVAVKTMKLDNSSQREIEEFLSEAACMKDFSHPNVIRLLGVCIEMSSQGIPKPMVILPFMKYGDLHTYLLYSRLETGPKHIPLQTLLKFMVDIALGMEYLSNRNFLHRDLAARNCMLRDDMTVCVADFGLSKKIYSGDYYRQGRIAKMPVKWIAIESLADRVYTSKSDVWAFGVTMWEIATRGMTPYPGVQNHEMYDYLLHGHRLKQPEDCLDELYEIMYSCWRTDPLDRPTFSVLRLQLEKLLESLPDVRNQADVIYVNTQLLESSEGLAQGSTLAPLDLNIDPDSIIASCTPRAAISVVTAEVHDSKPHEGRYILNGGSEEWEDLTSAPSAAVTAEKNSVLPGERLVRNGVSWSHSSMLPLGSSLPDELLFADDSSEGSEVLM
Chain of Jak2 (O60674 whole entry, looked up): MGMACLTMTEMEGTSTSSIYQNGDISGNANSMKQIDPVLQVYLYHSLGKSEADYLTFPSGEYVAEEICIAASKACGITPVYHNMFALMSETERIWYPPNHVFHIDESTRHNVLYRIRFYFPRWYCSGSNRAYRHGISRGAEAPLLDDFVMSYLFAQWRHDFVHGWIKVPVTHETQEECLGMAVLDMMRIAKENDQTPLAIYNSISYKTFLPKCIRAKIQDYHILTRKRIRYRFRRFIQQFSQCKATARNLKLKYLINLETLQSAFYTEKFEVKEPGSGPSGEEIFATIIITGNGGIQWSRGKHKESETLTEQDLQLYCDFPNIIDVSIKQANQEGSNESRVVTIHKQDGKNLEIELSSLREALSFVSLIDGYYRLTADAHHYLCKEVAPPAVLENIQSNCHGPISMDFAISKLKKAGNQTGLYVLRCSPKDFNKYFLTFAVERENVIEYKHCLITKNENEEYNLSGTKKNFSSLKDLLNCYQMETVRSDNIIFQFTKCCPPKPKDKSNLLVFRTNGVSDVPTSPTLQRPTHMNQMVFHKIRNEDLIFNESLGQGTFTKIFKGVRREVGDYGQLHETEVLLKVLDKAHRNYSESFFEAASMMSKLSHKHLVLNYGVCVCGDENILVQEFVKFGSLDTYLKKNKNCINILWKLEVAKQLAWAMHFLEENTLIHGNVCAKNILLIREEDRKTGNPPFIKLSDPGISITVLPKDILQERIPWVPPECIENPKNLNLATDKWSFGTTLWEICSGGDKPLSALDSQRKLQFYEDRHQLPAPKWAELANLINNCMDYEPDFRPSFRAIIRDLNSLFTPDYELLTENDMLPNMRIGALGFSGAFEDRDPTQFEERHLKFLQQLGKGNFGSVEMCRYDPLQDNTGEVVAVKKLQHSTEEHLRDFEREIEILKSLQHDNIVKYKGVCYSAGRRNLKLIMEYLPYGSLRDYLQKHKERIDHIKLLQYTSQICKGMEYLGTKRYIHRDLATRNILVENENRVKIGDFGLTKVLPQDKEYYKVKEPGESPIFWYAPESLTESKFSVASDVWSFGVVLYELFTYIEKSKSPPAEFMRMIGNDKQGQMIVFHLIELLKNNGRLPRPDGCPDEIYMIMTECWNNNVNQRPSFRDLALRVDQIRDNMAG
Chain of Fyn (P06241 whole entry, looked up): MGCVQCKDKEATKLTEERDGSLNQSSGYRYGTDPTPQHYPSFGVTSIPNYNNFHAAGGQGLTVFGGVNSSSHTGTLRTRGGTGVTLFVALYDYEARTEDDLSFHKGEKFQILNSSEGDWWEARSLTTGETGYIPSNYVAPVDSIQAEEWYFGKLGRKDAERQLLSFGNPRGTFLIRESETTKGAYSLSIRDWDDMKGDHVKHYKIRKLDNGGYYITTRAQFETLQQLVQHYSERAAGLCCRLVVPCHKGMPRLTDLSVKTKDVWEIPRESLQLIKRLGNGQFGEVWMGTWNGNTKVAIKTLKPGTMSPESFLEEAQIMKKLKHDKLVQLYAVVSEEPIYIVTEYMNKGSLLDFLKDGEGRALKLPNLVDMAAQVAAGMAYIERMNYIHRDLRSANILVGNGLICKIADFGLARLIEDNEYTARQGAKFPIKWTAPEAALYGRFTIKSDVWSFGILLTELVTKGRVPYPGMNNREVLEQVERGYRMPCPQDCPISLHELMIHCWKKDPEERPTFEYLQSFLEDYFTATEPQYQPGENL
Chain of Hck (P08631 whole entry, looked up): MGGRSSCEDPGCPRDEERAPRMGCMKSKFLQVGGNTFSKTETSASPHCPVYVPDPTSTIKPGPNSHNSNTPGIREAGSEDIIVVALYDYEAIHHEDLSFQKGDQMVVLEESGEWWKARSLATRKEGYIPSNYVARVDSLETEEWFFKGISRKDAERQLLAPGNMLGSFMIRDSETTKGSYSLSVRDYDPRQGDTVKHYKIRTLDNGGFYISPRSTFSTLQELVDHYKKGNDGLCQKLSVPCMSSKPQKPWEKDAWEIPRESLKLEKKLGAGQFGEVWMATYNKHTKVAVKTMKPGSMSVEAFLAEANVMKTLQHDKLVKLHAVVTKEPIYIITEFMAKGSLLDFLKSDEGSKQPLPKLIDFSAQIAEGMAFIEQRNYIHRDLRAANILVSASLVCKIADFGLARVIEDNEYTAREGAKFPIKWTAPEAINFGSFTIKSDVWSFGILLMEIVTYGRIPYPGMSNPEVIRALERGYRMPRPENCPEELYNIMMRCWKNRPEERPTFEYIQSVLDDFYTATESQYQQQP
Chain of Grb2 SH2 (P62993 whole entry, looked up): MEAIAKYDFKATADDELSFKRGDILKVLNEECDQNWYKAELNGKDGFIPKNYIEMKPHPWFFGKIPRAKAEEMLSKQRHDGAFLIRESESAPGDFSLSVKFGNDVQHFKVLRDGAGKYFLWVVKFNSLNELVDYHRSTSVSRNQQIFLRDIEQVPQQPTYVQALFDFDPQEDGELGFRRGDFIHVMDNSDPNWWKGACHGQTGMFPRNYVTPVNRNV
Chain of FGFR1 (P11362 whole entry, looked up): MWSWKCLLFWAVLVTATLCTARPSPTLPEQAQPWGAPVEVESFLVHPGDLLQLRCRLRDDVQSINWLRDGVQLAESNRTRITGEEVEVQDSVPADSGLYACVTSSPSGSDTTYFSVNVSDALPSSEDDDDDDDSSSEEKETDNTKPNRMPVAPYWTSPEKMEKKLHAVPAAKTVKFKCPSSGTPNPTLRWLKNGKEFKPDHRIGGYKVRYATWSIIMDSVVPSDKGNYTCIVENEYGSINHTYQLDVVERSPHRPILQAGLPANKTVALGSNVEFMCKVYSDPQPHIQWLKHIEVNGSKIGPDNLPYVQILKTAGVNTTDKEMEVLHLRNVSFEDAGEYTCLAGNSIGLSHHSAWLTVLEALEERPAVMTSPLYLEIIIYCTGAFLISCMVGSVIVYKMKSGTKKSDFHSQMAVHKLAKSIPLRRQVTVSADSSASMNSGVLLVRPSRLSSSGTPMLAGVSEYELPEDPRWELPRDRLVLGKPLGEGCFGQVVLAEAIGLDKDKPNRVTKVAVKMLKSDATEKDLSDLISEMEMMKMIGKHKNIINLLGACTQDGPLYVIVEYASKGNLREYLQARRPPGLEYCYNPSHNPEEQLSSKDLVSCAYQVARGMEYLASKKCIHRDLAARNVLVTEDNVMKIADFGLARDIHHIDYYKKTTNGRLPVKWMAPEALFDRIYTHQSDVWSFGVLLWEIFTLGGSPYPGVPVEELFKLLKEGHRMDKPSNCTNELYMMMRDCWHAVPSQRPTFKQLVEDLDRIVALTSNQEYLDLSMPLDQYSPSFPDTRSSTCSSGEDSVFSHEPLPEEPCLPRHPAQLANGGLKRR

Sequence | SH2 binding enrichment [1] | SH2 binding enrichment [2] | SH2 binding enrichment [3] | phosphorylation enrichment [4] | phosphorylation enrichment [5] | phosphorylation enrichment [6] | phosphorylation enrichment [7] | phosphorylation enrichment [8] | phosphorylation enrichment [9] | phosphorylation enrichment [10] | phosphorylation enrichment [11] | phosphorylation enrichment [12] | phosphorylation enrichment [13] | phosphorylation enrichment [14] | phosphorylation enrichment [15] | phosphorylation enrichment [16]
EKAEVYRSENE [RIOK2_Y348_G349R] | 0.94 | 0.653 | 0.502 | 0.509 | 1.09 | 0.51 | 0.507 | 0.448 | 0.44 | 1.08 | 0.499 | 0.724 | 0.738 | 0.466 | 0.863 | 0.77
PVQAAYQQVVA [HBB_Y131_K133Q] | 0.541 | 1.06 | 1.35 | 0.576 | 0.554 | 0.566 | 0.673 | 0.6 | 0.415 | 0.754 | 0.659 | 0.739 | 0.822 | 0.484 | 0.736 | 0.677
LTERSYSFVTT [ACTA1_Y200_G199S] | 0.945 | 4.37 | 5.24 | 0.856 | 0.951 | 0.543 | 0.973 | 0.622 | 2.56 | 1.24 | 1.04 | 0.718 | 0.984 | 2.92 | 1.03 | 0.889
GRSTFYWPRPR [GAGE12J_Y10_YF] | 0.844 | 0.64 | 0.563 | 0.501 | 0.831 | 0.446 | 0.48 | 0.474 | 0.538 | 0.602 | 0.713 | 0.47 | 0.472 | 0.463 | 0.644 | 0.573
GHEFIYVDPMQ [PDGFRA_Y574_YF] | 0.821 | 0.661 | 0.563 | 2.6 | 1.85 | 5.23 | 10.8 | 2.2 | 2.36 | 0.986 | 2.96 | 7.52 | 6.63 | 1.91 | 0.818 | 6.67
SSNLFYRCLTA [CNGA3_Y169_W171C_YF] | 0.808 | 0.518 | 0.399 | 0.454 | 1.03 | 0.638 | 0.491 | 0.384 | 0.42 | 1.36 | 0.429 | 0.742 | 0.632 | 0.497 | 1.12 | 1.06
YSPCDYQPCLA [TNS1_Y798_Y796C] | 0.874 | 0.908 | 2.46 | 1.62 | 2.78 | 13.9 | 4.87 | 1.14 | 3.24 | 0.966 | 0.838 | 3.25 | 9.31 | 2.44 | 1.06 | 0.827
CEHRGHLFLAI [TEK_Y897_Y897H_YF] | 1.41 | 1.06 | 0.867 | 0.453 | 1.02 | 0.625 | 0.536 | 0.516 | 0.482 | 1.11 | 0.547 | 0.908 | 0.544 | 0.463 | 0.888 | 0.806
GIPIQYPIISE [NOG_Y222_W217G] | 0.847 | 0.457 | 0.498 | 0.409 | 0.868 | 0.55 | 0.627 | 0.541 | 0.447 | 1.11 | 0.446 | 0.685 | 0.587 | 0.467 | 1.02 | 0.888
IRDLKYTIENP [SND1_Y178] | 0.748 | 0.762 | 0.438 | 0.47 | 1.21 | 0.521 | 0.776 | 0.456 | 0.407 | 1.38 | 0.507 | 0.807 | 0.522 | 0.541 | 1.19 | 0.785
GREEFYSTHPH [LRRK2_Y1402] | 0.845 | 0.607 | 0.376 | 0.421 | 0.576 | 0.385 | 0.505 | 0.42 | 1.52 | 0.575 | 0.679 | 0.465 | 0.482 | 0.528 | 0.483 | 0.418
IEENGYNTYAS [FGF10_Y161] | 0.759 | 0.64 | 1.12 | 0.6 | 1.02 | 0.534 | 0.562 | 0.606 | 0.422 | 1.12 | 0.645 | 0.674 | 0.593 | 0.49 | 0.802 | 0.64
PRQRRYVFFFS [PTEN_Y174_S170R_YF] | 0.861 | 0.453 | 0.453 | 0.597 | 0.739 | 0.606 | 0.62 | 0.575 | 0.574 | 0.605 | 0.446 | 0.715 | 0.343 | 0.555 | 0.262 | 0.385
KLQKKYGPIFS [CYP17A1_Y60_YF] | 0.882 | 0.754 | 0.461 | 0.489 | 0.555 | 0.377 | 0.308 | 0.38 | 0.39 | 0.503 | 0.383 | 0.415 | 0.39 | 0.324 | 0.583 | 0.505
LHRAHYDLRHT [AHSG_Y314] | 1.83 | 1.6 | 1.19 | 0.556 | 0.621 | 0.668 | 0.707 | 0.617 | 0.418 | 1.11 | 0.876 | 1.1 | 0.78 | 0.8 | 0.725 | 0.908
KLFYIYTSGTT [SLC27A4_Y245] | 0.943 | 1.34 | 0.53 | 0.575 | 1.24 | 0.61 | 0.449 | 0.455 | 0.5 | 1.37 | 0.506 | 0.755 | 0.727 | 0.556 | 1.51 | 0.767
SLQSEYVHFGG [CDC14A_Y591_YF] | 0.899 | 0.993 | 0.629 | 0.889 | 1.24 | 1.09 | 1.36 | 0.783 | 0.509 | 0.963 | 0.596 | 0.972 | 0.746 | 0.442 | 0.875 | 0.734
SKNSKYNAEST [PSEN1_Y315] | 0.759 | 0.595 | 0.489 | 0.425 | 0.482 | 0.309 | 0.339 | 0.363 | 0.35 | 0.609 | 0.351 | 0.366 | 0.426 | 0.396 | 0.673 | 0.52
CTTIHYNFMCS [TP53_Y234_N239S_YF] | 1.79 | 1.96 | 2.25 | 0.571 | 0.846 | 0.634 | 0.572 | 0.502 | 0.5 | 0.902 | 0.603 | 0.799 | 0.507 | 0.495 | 0.823 | 0.548
QNTGVYFDLFG [PTPN11_Y62_D61V_YF] | 0.731 | 0.688 | 0.661 | 2.02 | 2 | 2.93 | 12.8 | 3.82 | 3.19 | 1.52 | 3.34 | 11.6 | 1.33 | 0.831 | 1.95 | 0.912
SGDITYGQFAQ [PLCG1_Y210] | 0.716 | 0.557 | 0.53 | 5.78 | 0.596 | 0.47 | 0.426 | 8.52 | 0.362 | 0.632 | 4.63 | 0.422 | 0.4 | 0.387 | 0.796 | 0.495
TQRPFYKGGGG [TYROBP_Y112_YF] | 0.947 | 0.7 | 0.65 | 0.403 | 0.48 | 0.221 | 0.346 | 0.314 | 0.331 | 0.512 | 0.42 | 0.438 | 0.31 | 0.331 | 0.451 | 0.624
TLRKTYGEMAD [ALB_Y108_E106K] | 0.788 | 0.537 | 0.449 | 0.419 | 0.535 | 0.307 | 0.508 | 0.387 | 0.381 | 0.709 | 0.433 | 0.51 | 0.355 | 0.379 | 0.752 | 0.462
QNTGNYFDLFG [PTPN11_Y62_D61N_YF] | 1.04 | 0.867 | 0.599 | 0.71 | 1.6 | 27.6 | 21.2 | 0.541 | 10.8 | 1.44 | 0.49 | 15.3 | 22.6 | 0.925 | 4.13 | 1.28
GNLQENLTRHV [TGFBR2_Y336_Y336N] | 0.698 | 0.601 | 0.474 | 0.337 | 0.461 | 0.478 | 0.358 | 0.427 | 0.368 | 0.558 | 0.374 | 0.418 | 0.422 | 0.366 | 0.447 | 0.432
FSMGCYEISLG [HMGCL_Y198_YF] | 0.641 | 0.785 | 0.505 | 1.64 | 1.93 | 1.03 | 0.652 | 0.993 | 0.866 | 1.47 | 0.836 | 1.05 | 1.01 | 1.68 | 1.6 | 0.965
CQAHGYFCQPI [STK11_Y156_L160P] | 1.15 | 0.812 | 0.907 | 0.404 | 0.867 | 0.35 | 0.646 | 0.329 | 0.407 | 0.678 | 0.357 | 0.538 | 0.436 | 0.362 | 0.615 | 0.783
EFNINYNNELP [THG1L_Y228] | 0.774 | 0.839 | 0.55 | 0.354 | 0.734 | 0.383 | 0.488 | 0.468 | 0.341 | 0.829 | 0.429 | 0.568 | 0.516 | 0.38 | 1.07 | 0.444
AVSEGYKDFRA [CDA_Y79] | 0.687 | 0.554 | 0.385 | 0.338 | 0.602 | 0.386 | 0.519 | 0.441 | 0.449 | 0.689 | 0.452 | 0.542 | 0.456 | 0.341 | 0.553 | 0.602
